Bridge positions count the residues as written; N and C are the ends. Square brackets hold non-standard residues; d marks the D form. Ends that are not written are not given here. Pro(cis-4-CF3) = O=C(O)[C@@H]1C[C@H](C(F)(F)F)CN1; Oic = O=C(O)[C@@H]1C[C@@H]2CCCC[C@@H]2N1; NMeI = CC[C@H](C)[C@H](NC)C(=O)O; tBuAla = CC(C)(C)C[C@H](N)C(=O)O; PEG4 = NCCOCCOCCOCCOCCC(=O)O; Pen = CC(C)(S)[C@H](N)C(=O)O; NMeC = CN[C@@H](CS)C(=O)O; NMeA = CN[C@@H](C)C(=O)O; Orn = NCCC[C@H](N)C(=O)O; Aib = CC(C)(N)C(=O)O; Sar = CNCC(=O)O
T1: recombinant human MASP1 active protease (amino acids 297-699, C-terminal His Tag) (human, UniProt P48740 297-699)
T1 sequence: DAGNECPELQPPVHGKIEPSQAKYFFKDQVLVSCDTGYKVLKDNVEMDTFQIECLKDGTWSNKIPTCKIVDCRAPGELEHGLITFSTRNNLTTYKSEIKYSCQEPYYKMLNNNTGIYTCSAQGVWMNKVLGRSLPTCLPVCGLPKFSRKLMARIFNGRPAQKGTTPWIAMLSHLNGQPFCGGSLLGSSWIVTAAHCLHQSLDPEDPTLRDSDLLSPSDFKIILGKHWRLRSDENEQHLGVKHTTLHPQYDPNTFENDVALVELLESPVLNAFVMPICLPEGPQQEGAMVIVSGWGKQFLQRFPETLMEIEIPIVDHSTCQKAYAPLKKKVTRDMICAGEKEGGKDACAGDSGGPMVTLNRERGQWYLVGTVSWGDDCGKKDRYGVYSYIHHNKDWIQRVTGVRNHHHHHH


Legend:
[1] = target: T1, recombinant human MASP1 active protease …; test: cell-based or functional assay
[2] = target: recombinant human MASP2 active protease (amino acids 297-686, C-terminal His Tag) (human, UniProt O00187 297-686); test: cell-based or functional assay
Chain of recombinant human MASP2 active protease (amino acids 297-686, C-terminal His Tag) (O00187 other isoform, or with tags, fused parts or gaps limits assumed): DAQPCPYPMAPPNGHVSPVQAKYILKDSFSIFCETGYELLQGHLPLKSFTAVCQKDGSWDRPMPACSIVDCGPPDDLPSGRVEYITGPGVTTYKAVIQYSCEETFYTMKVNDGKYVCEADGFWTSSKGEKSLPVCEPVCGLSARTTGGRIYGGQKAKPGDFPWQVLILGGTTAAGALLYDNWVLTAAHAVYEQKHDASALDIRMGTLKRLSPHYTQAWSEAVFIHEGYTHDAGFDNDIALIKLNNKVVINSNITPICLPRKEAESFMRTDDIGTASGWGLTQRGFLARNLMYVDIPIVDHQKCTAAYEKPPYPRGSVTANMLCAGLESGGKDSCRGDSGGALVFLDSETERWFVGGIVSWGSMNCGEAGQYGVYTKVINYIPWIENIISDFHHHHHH

Row | Binder | human MASP1 IC50 [1] | human MASP2 IC50 [2]
1 | A[NMeI]CSRS[tBuAla]P[Oic]I[NMeC]IPD-NH2 (disulfide 3-11; N-terminus assumed; SMILES CC[C@H](C)[C@@H]1NC(=O)[C@@H]2C[C@@H]3CCCC[C@@H]3N2C(=O)[C@@H]2CCCN2C(=O)[C@H](CC(C)(C)C)NC(=O)[C@H](CO)NC(=O)[C@H](CCCNC(=N)N)NC(=O)[C@H](CO)NC(=O)[C@@H](NC(=O)[C@H]([C@@H](C)CC)N(C)C(=O)[C@H](C)N)CSSC[C@@H](C(=O)N[C@H](C(=O)N2CCC[C@H]2C(=O)N[C@@H](CC(=O)O)C(N)=O)[C@@H](C)CC)N(C)C1=O) [A-((N-Me)I)-C+SRS-((tBu)A)-P-(Oic)-I-((N-Me)C)+IPD-NH2] | 3.1 nM | 590 nM
2 | AICSRS[tBuAla]P[Pro(cis-4-CF3)]I[NMeC]IPD-NH2 (disulfide 3-11; N-terminus assumed; SMILES CC[C@H](C)[C@H](NC(=O)[C@H](C)N)C(=O)N[C@H]1CSSC[C@@H](C(=O)N[C@H](C(=O)N2CCC[C@H]2C(=O)N[C@@H](CC(=O)O)C(N)=O)[C@@H](C)CC)N(C)C(=O)[C@H]([C@@H](C)CC)NC(=O)[C@@H]2C[C@H](C(F)(F)F)CN2C(=O)[C@@H]2CCCN2C(=O)[C@H](CC(C)(C)C)NC(=O)[C@H](CO)NC(=O)[C@H](CCCNC(=N)N)NC(=O)[C@H](CO)NC1=O) [AIC+SRS-((tBu)A)-P-((4-CF3)P)-I-((N-Me)C)+IPD-NH2] | 3.2 nM | 1600 nM
3 | AICSRS[tBuAla]PPICID-OH (disulfide 3-11; N-terminus assumed; SMILES CC[C@H](C)[C@H](NC(=O)[C@H](C)N)C(=O)N[C@H]1CSSC[C@@H](C(=O)N[C@H](C(=O)N[C@@H](CC(=O)O)C(=O)O)[C@@H](C)CC)NC(=O)[C@H]([C@@H](C)CC)NC(=O)[C@@H]2CCCN2C(=O)[C@@H]2CCCN2C(=O)[C@H](CC(C)(C)C)NC(=O)[C@H](CO)NC(=O)[C@H](CCCNC(=N)N)NC(=O)[C@H](CO)NC1=O) [AIC+SRS-((t-Bu)A)-PPIC+ID-OH] | 3.1 nM | 83 nM
4 | AICSRSLP[Oic]I[Pen]IPE-NH2 (disulfide 3-11; N-terminus assumed; SMILES CC[C@H](C)[C@H](NC(=O)[C@H](C)N)C(=O)N[C@H]1CSSC(C)(C)[C@@H](C(=O)N[C@H](C(=O)N2CCC[C@H]2C(=O)N[C@@H](CCC(=O)O)C(N)=O)[C@@H](C)CC)NC(=O)[C@H]([C@@H](C)CC)NC(=O)[C@@H]2C[C@@H]3CCCC[C@@H]3N2C(=O)[C@@H]2CCCN2C(=O)[C@H](CC(C)C)NC(=O)[C@H](CO)NC(=O)[C@H](CCCNC(=N)N)NC(=O)[C@H](CO)NC1=O) [AIC+SRSLP-(Oic)-I-(Pen)+IPE-NH2] | 3.1 nM | 160 nM
5 | [Sar]ICSRSLP[Oic]I[Pen]IP[PEG4]-NH2 (disulfide 3-11; N-terminus assumed; SMILES CC[C@H](C)[C@H](NC(=O)CNC)C(=O)N[C@H]1CSSC(C)(C)[C@@H](C(=O)N[C@H](C(=O)N2CCC[C@H]2C(=O)NCCOCCOCCOCCOCCC(N)=O)[C@@H](C)CC)NC(=O)[C@H]([C@@H](C)CC)NC(=O)[C@@H]2C[C@@H]3CCCC[C@@H]3N2C(=O)[C@@H]2CCCN2C(=O)[C@H](CC(C)C)NC(=O)[C@H](CO)NC(=O)[C@H](CCCNC(=N)N)NC(=O)[C@H](CO)NC1=O) [((N-Me)G)-IC+SRSLP-(Oic)-I-(Pen)+IP-(PEG3(16 atoms))-NH2] | 3.2 nM | 79 nM
6 | [2‑(Piperidin)acetyl]ICSRS[tBuAla]PPI[Pen]IPD-NH2 (disulfide 3-11) [(2-(Piperidin)acetyl)-IC+SRS-((tBu)A)-PPI-(Pen)+IPD-NH2] | 3.3 nM | 71 nM
7 | [Aib]ICSRS[tBuAla]PPI[Pen]IPD-NH2 (disulfide 3-11; N-terminus assumed; SMILES CC[C@H](C)[C@@H]1NC(=O)[C@@H]2CCCN2C(=O)[C@@H]2CCCN2C(=O)[C@H](CC(C)(C)C)NC(=O)[C@H](CO)NC(=O)[C@H](CCCNC(=N)N)NC(=O)[C@H](CO)NC(=O)[C@@H](NC(=O)[C@@H](NC(=O)C(C)(C)N)[C@@H](C)CC)CSSC(C)(C)[C@@H](C(=O)N[C@H](C(=O)N2CCC[C@H]2C(=O)N[C@@H](CC(=O)O)C(N)=O)[C@@H](C)CC)NC1=O) [(Aib)-IC+SRS-((tBu)A)-PPI-(Pen)+IPD-NH2] | 1.19 nM | 36 nM
8 | [Orn]ICSRS[tBuAla]PPI[Pen]IP-NH2 (disulfide 3-11; N-terminus assumed; SMILES CC[C@H](C)[C@H](NC(=O)[C@@H](N)CCCN)C(=O)N[C@H]1CSSC(C)(C)[C@@H](C(=O)N[C@H](C(=O)N2CCC[C@H]2C(N)=O)[C@@H](C)CC)NC(=O)[C@H]([C@@H](C)CC)NC(=O)[C@@H]2CCCN2C(=O)[C@@H]2CCCN2C(=O)[C@H](CC(C)(C)C)NC(=O)[C@H](CO)NC(=O)[C@H](CCCNC(=N)N)NC(=O)[C@H](CO)NC1=O) [(Orn)-IC+SRS-((tBu)A)-PPI-(Pen)+IP-NH2] | 3.2 nM | 93 nM
9 | HICSRS[tBuAla]PPI[Pen]IPD-NH2 (disulfide 3-11; N-terminus assumed; SMILES CC[C@H](C)[C@H](NC(=O)[C@@H](N)Cc1c[nH]cn1)C(=O)N[C@H]1CSSC(C)(C)[C@@H](C(=O)N[C@H](C(=O)N2CCC[C@H]2C(=O)N[C@@H](CC(=O)O)C(N)=O)[C@@H](C)CC)NC(=O)[C@H]([C@@H](C)CC)NC(=O)[C@@H]2CCCN2C(=O)[C@@H]2CCCN2C(=O)[C@H](CC(C)(C)C)NC(=O)[C@H](CO)NC(=O)[C@H](CCCNC(=N)N)NC(=O)[C@H](CO)NC1=O) [HIC+SRS-((tBu)A)-PPI-(Pen)+IPD-NH2] | 3.2 nM | 75 nM
10 | A[NMeI]CSRS[tBuAla]PPI[NMeC]IPD-NH2 (disulfide 3-11; N-terminus assumed; SMILES CC[C@H](C)[C@@H]1NC(=O)[C@@H]2CCCN2C(=O)[C@@H]2CCCN2C(=O)[C@H](CC(C)(C)C)NC(=O)[C@H](CO)NC(=O)[C@H](CCCNC(=N)N)NC(=O)[C@H](CO)NC(=O)[C@@H](NC(=O)[C@H]([C@@H](C)CC)N(C)C(=O)[C@H](C)N)CSSC[C@@H](C(=O)N[C@H](C(=O)N2CCC[C@H]2C(=O)N[C@@H](CC(=O)O)C(N)=O)[C@@H](C)CC)N(C)C1=O) [A-((N-Me)I)-C+SRS-((tBu)A)-PPI-((N-Me)C)+IPD-NH2] | 1.2 nM | 620 nM
11 | [NMeA]ICSRS[tBuAla]PPI[Pen]IP-NH2 (disulfide 3-11; N-terminus assumed; SMILES CC[C@H](C)[C@H](NC(=O)[C@H](C)NC)C(=O)N[C@H]1CSSC(C)(C)[C@@H](C(=O)N[C@H](C(=O)N2CCC[C@H]2C(N)=O)[C@@H](C)CC)NC(=O)[C@H]([C@@H](C)CC)NC(=O)[C@@H]2CCCN2C(=O)[C@@H]2CCCN2C(=O)[C@H](CC(C)(C)C)NC(=O)[C@H](CO)NC(=O)[C@H](CCCNC(=N)N)NC(=O)[C@H](CO)NC1=O) [((N-Me)A)-IC+SRS-((tBu)A)-PPI-(Pen)+IP-NH2] | 3.2 nM | 24 nM
